Measurements as given in US11957762B2, “Immune tolerant and non-immune tolerant elastin-like recombinant peptides and methods of use” (University of Utah Research Foundation, priority 2015, dated 2024).

B1: G(GAGVPG)70G(GVLPGVG)28G(ESIINFEKLT)2GG (protein)
chain: GGAGVPGGAGVPGGAGVPGGAGVPGGAGVPGGAGVPGGAGVPGGAGVPGGAGVPGGAGVPGGAGVPGGAGVPGGAGVPGGAGVPGGAGVPGGAGVPGGAGVPGGAGVPGGAGVPGGAGVPGGAGVPGGAGVPGGAGVPGGAGVPGGAGVPGGAGVPGGAGVPGGAGVPGGAGVPGGAGVPGGAGVPGGAGVPGGAGVPGGAGVPGGAGVPGGAGVPGGAGVPGGAGVPGGAGVPGGAGVPGGAGVPGGAGVPGGAGVPGGAGVPGGAGVPGGAGVPGGAGVPGGAGVPGGAGVPGGAGVPGGAGVPGGAGVPGGAGVPGGAGVPGGAGVPGGAGVPGGAGVPGGAGVPGGAGVPGGAGVPGGAGVPGGAGVPGGAGVPGGAGVPGGAGVPGGAGVPGGAGVPGGAGVPGGAGVPGGAGVPGGESIINFEKLTESIINFEKLTGG
B2: ST-NP: stable NP of the fusion iTEPB70-iTEPA56-pOVA (SEQ ID NO: 60) (protein)
chain: GGAGVPGGAGVPGGAGVPGGAGVPGGAGVPGGAGVPGGAGVPGGAGVPGGAGVPGGAGVPGGAGVPGGAGVPGGAGVPGGAGVPGGAGVPGGAGVPGGAGVPGGAGVPGGAGVPGGAGVPGGAGVPGGAGVPGGAGVPGGAGVPGGAGVPGGAGVPGGAGVPGGAGVPGGAGVPGGAGVPGGAGVPGGAGVPGGAGVPGGAGVPGGAGVPGGAGVPGGAGVPGGAGVPGGAGVPGGAGVPGGAGVPGGAGVPGGAGVPGGAGVPGGAGVPGGAGVPGGAGVPGGAGVPGGAGVPGGAGVPGGAGVPGGAGVPGGAGVPGGAGVPGGAGVPGGAGVPGGAGVPGGAGVPGGAGVPGGAGVPGGAGVPGGAGVPGGAGVPGGAGVPGGAGVPGGAGVPGGAGVPGGAGVPGGAGVPGGAGVPGGGVLPGVGGVLPGVGGVLPGVGGVLPGVGGVLPGVGGVLPGVGGVLPGVGGVLPGVGGVLPGVGGVLPGVGGVLPGVGGVLPGVGGVLPGVGGVLPGVGGVLPGVGGVLPGVGGVLPGVGGVLPGVGGVLPGVGGVLPGVGGVLPGVGGVLPGVGGVLPGVGGVLPGVGGVLPGVGGVLPGVGGVLPGVGGVLPGVGGGGGGGGGCGGGGGGGGCGGGGGGGGCGGGGGGGGCGESIINFEKLTESIINFEKLTGG
B3: RED-NP: reductive-environment dependable NP, disulfide stabilized fusion iTEPB70-iTEPA28-(G8C)4-pOVA (SEQ ID NO: 61) (protein)
chain: GGAGVPGGAGVPGGAGVPGGAGVPGGAGVPGGAGVPGGAGVPGGAGVPGGAGVPGGAGVPGGAGVPGGAGVPGGAGVPGGAGVPGGAGVPGGAGVPGGAGVPGGAGVPGGAGVPGGAGVPGGAGVPGGAGVPGGAGVPGGAGVPGGAGVPGGAGVPGGAGVPGGAGVPGGAGVPGGAGVPGGAGVPGGAGVPGGAGVPGGAGVPGGAGVPGGAGVPGGAGVPGGAGVPGGAGVPGGAGVPGGAGVPGGAGVPGGAGVPGGAGVPGGAGVPGGAGVPGGAGVPGGAGVPGGAGVPGGAGVPGGAGVPGGAGVPGGAGVPGGAGVPGGAGVPGGAGVPGGAGVPGGAGVPGGAGVPGGAGVPGGAGVPGGAGVPGGAGVPGGAGVPGGAGVPGGAGVPGGAGVPGGAGVPGGAGVPGGAGVPGGGVLPGVGGVLPGVGGVLPGVGGVLPGVGGVLPGVGGVLPGVGGVLPGVGGVLPGVGGVLPGVGGVLPGVGGVLPGVGGVLPGVGGVLPGVGGVLPGVGGVLPGVGGVLPGVGGVLPGVGGVLPGVGGVLPGVGGVLPGVGGVLPGVGGVLPGVGGVLPGVGGVLPGVGGVLPGVGGVLPGVGGVLPGVGGVLPGVGGCGCGCGCGESIINFEKLTESIINFEKLTGG

Tests used:
[1] = Hydrodynamic diameter by dynamic light scattering (DLS); format: physicochemical; parameters: Stability: key to the marks not given beside the values
Method: Characterization of the size of iTEPB-pOVA and iTEPB-iTEPA-pOVA fusions. The particle size distribution of the iTEP fusions was determined by dynamic light scattering (DLS) using a Zetasizer Nano-ZS instrument (Malvern Instruments, Malvern, UK) as previously described.^(29) The fusions were prepared at 5 μM and 25 μM in PBS and equilibrated at 37° C. for the measurement. The reported results represented the average particle size by number.
Dynamic light scattering (DLS) measurement. The measurement was carried out as previously described. iTEP, iTEP-MPBH-ABA-Sali conjugate, or PTX NP were measured at 25 μM in PBS at 37° C. using a Malvern Zetasizer Nano system (Malvern, Chester County, PA, USA).
Characterization of hydrodynamic diameters of iTEP-vaccine fusions. Hydrodynamic diameters of iTEP-vaccine fusions were determined by dynamic light scattering (DLS) using a Zetasizer Nano-ZS instrument (Malvern Instruments, Malvern, UK) as previously described (Zhao et al., Mol Pharm, 2014; 11(8):2703-12). The samples were resuspended at concentrations of 5, 25, 50, and 100 μM in PBS and sat at room temperature overnight before measurement. Some samples were kept in 5% C02 at 37° C. for 16 h before DLS measurement. Hydrodynamic diameter results of the sample of 5 μM concentration were reported because they were not affected by the used sample concentrations. Hydrodynamic diameters were presented using the size-by-number distribution approach. Z-average values and sizes-by-intensity data, however, were also reported.

[2] = test system: DC2.4 cells; experiment: Presentation of the CTL epitope […] by DCs (flow cytometry); format: cell-based, murine; details: 16 h incubation with DC2.4 cells
Method: Presentation of the CTL epitope, […], by DCs. Cells of a murine DC line (DC2.4, a gift from K. Rock)^(32) were plated at 2.5×10^5/500 μL/well in 24-well plates. 500 μL of OVA, […] peptide (SEQ ID NO: 22), or iTEPB-iTEPA-pOVA NP (SEQ ID NO: 56) (iTEP-pOVA NP hereafter) were dissolved in cell culture media and added to the wells containing DCs. The cells were further cultured for 16 hrs. at 37° C. with 5% CO2 before they were collected and washed with PBS. The MHC class I complex, H-2kb/[…] presented on DC surface was stained with a PE-tagged monoclonal antibody 25-D1.16 (Biolegend, 1:100 dilution) and quantified with flow cytometry (5×10^4 events collected per sample). The data are presented as MFI normalized to the MFI of untreated DC2.4 cells.
Presentation of […] epitope vaccine by DCs. The presentation was studied as previously described (Cho et al., J Drug Target, 2015; p 1-12). The concentration of iTEP-vaccine fusions (NPs) used in this experiment was 5 μM. The results of presentation were shown as mean fluorescence intensity (MFI) of 5000 treated, live cells in a given treatment, which were normalized to the MFI value of untreated DC2.4 cells.

[3] = test system: B3Z cells; experiment: B3Z CD8+ T cell hybridoma activation assay; format: cell-based; details: for activation of B3Z cells: DC2.4 cells pre-incubated with antigen
Method: B3Z CD8+ T cell hybridoma activation assay. B3Z cells (a gift from N. Shastri) are a CD8+ T-cell hybridoma engineered to secrete β-galactosidase when their T-cell receptors are engaged with an […]:H2K^b complex.^(33) To do this assay, 1×10^5 DC2.4 cells/well were set in 96-well plates. OVA, […] peptide (SEQ ID NO: 22), and iTEP-pOVA NP (SEQ ID NO: 56) at indicated concentrations were loaded into the cell culture for 16 hours and then washed away. 1×10^5 B3Z cells/well were added to the DC2.4 cell culture and co-cultured with DC2.4 cells for 24 hours. The cells were washed with PBS before 100 μL of lysis buffer (PBS with 100 mM 2-mercaptoethanol, 9 mM MgCl2, 0.125% NP-40) together with 0.15 mM chlorophenol red β-galactoside were added into the wells. After the plates were incubated at 37° C. for 4 hours, the reaction was stopped with 50 μL/well of 15 mM EDTA and 300 mM glycine. The OD at 570 nm was measured and the OD at 630 nm was used as reference. The OD was used as an indicator as activation status of B3Z cells.
Activation of B3Z hybridoma (CD8+T) cells. This assay was done with a protocol described previously (Cho et al., J Drug Target, 2015; p 1-12).

[4] = SDS-PAGE analysis of NPs after GSH treatment; format: physicochemical; details: GSH overnight, non-reducing gels
Method: SDS-PAGE was used to analyze responses of the RED-NP, the MS-NP, and the ST-NP to the treatment of 1 mM GSH. 1 mM but not 10 μM of GSH reduced disulfide bonds inside RED-NP. A large fraction of polymers of the RED-NP fusion (iTEPB70-iTEPA28-(G8C)4-pOVA; (SEQ ID NO: 61)) became monomers due to the treatment of 1 mM GSH, showing as a 50-kDa band on the gel. In contrast, GSH had no effect on polymerization status of the fusions of MS-NP and ST-NP. Non-reducing gels and 25 μg of each fusion were used for the analysis.

[5] = after 16 h incubation in 5% CO2 at 37° C.
[6] = after the 16 h incubation at 37° C.
[7] = after 16 h incubation at 37° C.

| Molecule | mean diameter (DLS) ([1]; 5 μM in PBS, 37° C., by number) [nm] | mean diameter / size (DLS) ([1]; 25 μM in PBS, 37° C., by number) [nm] | hydrodynamic diameter by number distribution [1, 5] [nm] | Z-average [1, 6] [nm] | hydrodynamic diameter by number distribution ([1]; before incubation (0 h), 5 μM) [nm] | Z-average ([1]; before the incubation) [nm] | hydrodynamic diameter by intensity ([1]; before the incubation (0 h)) [nm] | presentation of SIINFEKL by DCs [2] | B3Z activity, fold more active than DC-treated B3Z cells [3] [fold] | B3Z activity, fold more active than OVA/DC-treated B3Z cells [3] [fold] | B3Z activity, fold more active than iTEPB-pOVA/DC-treated B3Z cells [3] [fold] | response to GSH treatment (reduction of disulfide bonds, SDS-PAGE) [4] | Stability [1] | hydrodynamic diameter by intensity [1, 7] [nm] | activation of B3Z cells [3] |
| --- | --- | --- | --- | --- | --- | --- | --- | --- | --- | --- | --- | --- | --- | --- | --- |
| B1 | 81.2±14.2 | 71.9±20.8 | 8.39±1.20 | 422.90 | 71.94±20.81 | 101.00 | 111.90±35.02 | significantly more | 4.38 | 3.81 | 2.9 | did not respond to the treatment | – | – | – |
| B2 | – | – | 55.36±12.88 | 70.42 | 56.01±13.54 | 74.59 | 78.56±21.60 | significantly weaker presentation than the MS-NP | – | – | – | did not respond to the treatment | ++ | 74.45±18.99 | much less robust in activating B3Z cells than the MS-NP |
| B3 | – | – | 53.05±12.38 | 76.89 | 61.94±12.71 | 87.59 | 75.55±15.32 | significantly better than that of the ST-NP | – | – | – | can be reduced by 1 mM but not by 10 μM of GSH | – | 70.99±17.52 | failed to activate B3Z cells as effectively as the MS-NP but, again, fared better than the ST-NP |
